Data on four molecules can be found in US20220041683A1 (published 2022).

Where no end group is shown, it is not given here.

Assay [1] deals with T1, NRP1 displayed on the human umbilical vein endothelial cell (HUVEC) surface (human, UniProt O14786 22-923).
T1 construct: whole, on cells; Endogenous NRP1 of human cells; also called NRP1 on the HUVEC cell surface
In words: confocal microscopy on HUVEC. As to the method:
Specifically, 5×10⁴ HUVEC cells were added to each well of a 24-well plate and incubated in 0.5 ml of EGM2 (Endothelial growth medium, Promocell) medium for 24 hours under the conditions of 5% CO₂ and 37° C. […] Next, the medium was removed, and each well was washed with cold PBS. […] The nucleus was stained (blue fluorescence) with DAPI and analyzed by confocal microscopy.

Assay [2] addresses NRP2-b1b2 (275-595) protein (UniProt O60462). Briefly: SPR; KD on NRP2-b1b2 divided by KD on NRP1-b1b2. On the technique in general: In SPR one partner is held on a chip, and binding of the other changes the refractive index at the surface.
Assay [3] has as its target NRP1-b1b2 (273-586) protein (UniProt O14786). In words: SPR (Biacore 2000), NRP1-b1b2 immobilised on CM5.
Assay [4] has as its target NRP2-b1b2 (275-595) protein (UniProt O60462). Briefly: SPR (Biacore 2000), NRP2-b1b2 immobilised on CM5.
The target in assay [5] is NRP1-b1b2 (273-586) protein (UniProt O14786). Briefly: ELISA on immobilised NRP1-b1b2, reference Fc-TPP11. On the technique in general: In an ELISA, binding on a coated surface is turned into a signal by an enzyme label.

NRP2-b1b2 (275-595) protein, sequence (O60462 275-595 limits assumed, form in doubt): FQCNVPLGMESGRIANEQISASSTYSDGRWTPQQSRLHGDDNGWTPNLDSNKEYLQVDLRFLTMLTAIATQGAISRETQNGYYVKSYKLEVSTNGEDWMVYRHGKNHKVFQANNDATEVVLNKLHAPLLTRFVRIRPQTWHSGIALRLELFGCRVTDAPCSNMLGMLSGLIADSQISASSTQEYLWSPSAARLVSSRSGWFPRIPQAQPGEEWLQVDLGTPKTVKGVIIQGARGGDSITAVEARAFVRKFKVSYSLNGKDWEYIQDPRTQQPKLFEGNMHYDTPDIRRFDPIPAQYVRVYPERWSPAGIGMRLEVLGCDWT

B1: Fc-TPP1 (Fc fusion)
chain: GGGGSGGGGSGGGGSHTPGNSNQFVLTSTRPPR
modifications: not fully specified (N-terminus); also: Fc fusion, peptide at end of CH3, Fc not in chain, disulfide-linked Fc dimer
notes: Disulfide-linked dimer, peptide fused to the end of CH3 by a (G4S)3 linker; expressed in HEK293-F; also called Fc-TPP1 fusion protein; Fc-TPP1 protein; not shown: Antibody heavy-chain constant region Fc (hinge-CH2-CH3)
One may read the Kd as the concentration at which binding is half-saturated. On to B1, for which, in assay [1], the binding result is listed as “binds”. In addition, in assay [2], the Binding Affinity Ratio [(KD for NRP2)/KD for NRP1)] is 625. Further, the Kd in assay [3] was found to be 1.81 nM; in assay [4], 1130 nM.
HTPGNSKPTRTPRR (also: biotinylated for ELISA, position not given here) [synthetic peptide TPP11 not fused to Fc] gave a fold lower affinity than Fc-TPP11 in assay [5] of 100 fold.

B2: Fc-A22p (Fc fusion, not shown: a dimerising Fc or GST; small tags and cut ends)
chain: HTPGNSNKWKHLQENKKGRPRR
modifications: not fully specified (N-terminus); also: fused C-terminal to Fc (hinge-CH2-CH3), isotype and sequence not given here, linker not given here
Consider B2, for which the Binding Affinity Ratio [(KD for NRP2)/KD for NRP1)] in assay [2] worked out at 0.98. The Kd in assay [4] is 62 nM.

B3: Fc-TPP8 (Fc fusion, not shown: a dimerising Fc or GST; small tags and cut ends)
chain: GGGGSGGGGSGGGGSHTPGIATRTPR
modifications: not fully specified (N-terminus); also: Fc fusion, Fc not in chain, disulfide-linked Fc dimer
Turning to B3, the Binding Affinity Ratio [(KD for NRP2)/KD for NRP1)] in assay [2] came out at 65.8. The Kd in assay [3] is 3.85 nM; in assay [4], 254 nM.
